Columns and labels:
[1] = target: T1, human CD3 on CD3+ Jurkat cells (human, UniProt P07766 23-207; P09693 23-182; P04234 22-171); experiment: FACS on CD3+ Jurkat cells, supernatant, 5.0 nM
T1 construct: whole, on cells; also called CD3 positive Jurkat cells
Description: (§1) To confirm whether the expressed proteins had correct folding and retained the original function, we tested their binding on CD3 positive Jurkat cells. FACS bindings of all the samples were carried out at three different concentrations: […].

[2] = target: T1, human CD3 on CD3+ Jurkat cells; experiment: FACS on CD3+ Jurkat cells, supernatant, 0.4 nM
Description: as §1

[3] = target: T1, human CD3 on CD3+ Jurkat cells; experiment: FACS on CD3+ Jurkat cells, supernatant, 0.032 nM
Description: as §1

[4] = target: T2, human CD19 on CD19+ B cell lines (Ramos, Raji) (human, UniProt P15391 20-556); experiment: cell-based or functional assay
T2 sequence (looked up): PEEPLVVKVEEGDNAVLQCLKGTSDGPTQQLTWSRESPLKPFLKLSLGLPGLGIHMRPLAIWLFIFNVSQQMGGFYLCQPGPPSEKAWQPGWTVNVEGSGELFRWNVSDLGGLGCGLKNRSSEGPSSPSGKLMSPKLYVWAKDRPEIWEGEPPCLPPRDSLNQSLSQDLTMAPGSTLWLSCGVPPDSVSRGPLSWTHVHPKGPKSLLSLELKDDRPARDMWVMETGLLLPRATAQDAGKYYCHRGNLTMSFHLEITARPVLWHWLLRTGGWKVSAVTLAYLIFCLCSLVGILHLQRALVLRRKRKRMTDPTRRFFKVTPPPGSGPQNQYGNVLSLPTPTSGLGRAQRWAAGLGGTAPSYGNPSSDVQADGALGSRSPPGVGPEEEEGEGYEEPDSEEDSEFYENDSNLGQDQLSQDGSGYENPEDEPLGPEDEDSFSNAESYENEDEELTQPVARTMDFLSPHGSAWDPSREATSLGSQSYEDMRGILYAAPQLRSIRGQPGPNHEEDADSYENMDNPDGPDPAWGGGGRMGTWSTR

[5] = target: T1, human CD3 on CD3+ Jurkat cells; experiment: FACS on CD3+ Jurkat cells, Expi293 supernatant
[6] = target: T3, cynomolgus CTLA-4 on engineered 293F cells (W316-293F.cynoPro1.F1.Pool) (cynomolgus); experiment: FACS binding to cynomolgus CTLA-4 engineered cells
T3 construct: whole, on cells; also called cynomolgus CTLA-4 engineered cells
Description: 4-fold titrated Abs with 1% BSA DPBS from 40 μg/ml to 0.00004 μg/ml were added to the cells. Plates were incubated at 4° C. for 1 hour. After wash, […] 1:150 diluted PE-labeled goat anti-human antibody (Jackson 109-115-098) was added to each well and the plates were incubated at 4° C. for 1 hour. The binding of the antibodies onto the cells was tested by flow cytometry and the mean fluorescence intensity (MFI) was analyzed by FlowJo.

T1 sequence (P07766 23-207, chain 1 of 3): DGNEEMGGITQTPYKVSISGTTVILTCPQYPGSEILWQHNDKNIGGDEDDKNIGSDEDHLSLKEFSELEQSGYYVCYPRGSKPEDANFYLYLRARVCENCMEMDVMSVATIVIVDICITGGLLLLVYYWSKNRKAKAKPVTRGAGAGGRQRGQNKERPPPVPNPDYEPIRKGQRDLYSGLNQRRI
T1 sequence (P09693 23-182, chain 2 of 3): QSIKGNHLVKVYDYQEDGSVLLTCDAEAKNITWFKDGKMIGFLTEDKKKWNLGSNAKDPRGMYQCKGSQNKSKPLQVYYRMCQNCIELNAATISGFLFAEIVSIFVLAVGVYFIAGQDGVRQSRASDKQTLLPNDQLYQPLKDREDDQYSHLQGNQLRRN
T1 sequence (P04234 22-171, chain 3 of 3): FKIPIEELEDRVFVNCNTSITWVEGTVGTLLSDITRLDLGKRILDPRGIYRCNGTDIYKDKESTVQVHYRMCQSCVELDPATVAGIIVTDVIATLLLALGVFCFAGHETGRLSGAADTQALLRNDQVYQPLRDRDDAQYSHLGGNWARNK

B1: T3-Design_3 (IgG1), crossed orientation (antibody)
heavy: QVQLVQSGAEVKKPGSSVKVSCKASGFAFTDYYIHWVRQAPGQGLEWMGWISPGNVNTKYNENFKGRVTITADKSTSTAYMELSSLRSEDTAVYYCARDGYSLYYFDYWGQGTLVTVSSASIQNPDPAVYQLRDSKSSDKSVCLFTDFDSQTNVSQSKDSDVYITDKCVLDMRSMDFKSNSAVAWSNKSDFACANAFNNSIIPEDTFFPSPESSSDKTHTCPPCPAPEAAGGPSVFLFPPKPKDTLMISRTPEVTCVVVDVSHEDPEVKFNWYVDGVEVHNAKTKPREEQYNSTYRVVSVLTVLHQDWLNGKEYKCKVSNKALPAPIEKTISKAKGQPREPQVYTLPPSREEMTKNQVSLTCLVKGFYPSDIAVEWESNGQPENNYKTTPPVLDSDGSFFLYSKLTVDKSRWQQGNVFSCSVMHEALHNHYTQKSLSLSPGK
light: DIVMTQSPDSLAVSLGERATINCKSSQSLLNSRTRKNYLAWYQQKPGQPPKLLIYWASTRQSGVPDRFSGSGSGTDFTLTISSLQAEDVAVYYCTQSHTLRTFGGGTKVEIKLEDLKNVFPPEVAVFEPSEAEISHTQKATLVCLATGFYPDHVELSWWVNGKEVHSGVCTDPQPLKEQPALNDSRYALSSRLRVSATFWQNPRNHFRCQVQFYGLSENDEWTQDRAKPVTQIVSAEAWGRA
notes: Monospecific IgG-like TCR chimera; tested as supernatant
MFI at 5.0 nM [1]: 5090 MFI | MFI at 0.4 nM [2]: 982 MFI | MFI at 0.032 nM [3]: 137 MFI

B2: T3-Design_4 (IgG1), crossed orientation (antibody)
heavy: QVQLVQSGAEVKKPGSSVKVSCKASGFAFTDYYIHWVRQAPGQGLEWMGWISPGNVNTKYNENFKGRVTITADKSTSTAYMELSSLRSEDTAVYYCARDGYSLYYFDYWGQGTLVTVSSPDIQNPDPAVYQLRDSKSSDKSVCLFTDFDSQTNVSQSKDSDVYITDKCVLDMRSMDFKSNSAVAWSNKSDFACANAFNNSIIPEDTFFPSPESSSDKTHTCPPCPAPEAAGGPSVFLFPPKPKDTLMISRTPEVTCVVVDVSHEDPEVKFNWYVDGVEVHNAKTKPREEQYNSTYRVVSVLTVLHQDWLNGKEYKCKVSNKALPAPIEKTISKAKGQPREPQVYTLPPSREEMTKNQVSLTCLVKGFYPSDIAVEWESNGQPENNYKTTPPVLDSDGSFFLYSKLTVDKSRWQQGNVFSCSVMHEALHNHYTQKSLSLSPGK
light: DIVMTQSPDSLAVSLGERATINCKSSQSLLNSRTRKNYLAWYQQKPGQPPKLLIYWASTRQSGVPDRFSGSGSGTDFTLTISSLQAEDVAVYYCTQSHTLRTFGGGTKVEIKLEDLKNVFPPEVAVFEPSEAEISHTQKATLVCLATGFYPDHVELSWWVNGKEVHSGVCTDPQPLKEQPALNDSRYALSSRLRVSATFWQNPRNHFRCQVQFYGLSENDEWTQDRAKPVTQIVSAEAWGRA
notes: as for B1
MFI at 5.0 nM [1]: 5440 MFI | MFI at 0.4 nM [2]: 1210 MFI | MFI at 0.032 nM [3]: 168 MFI

B3: T3-Design_7 (IgG1), crossed orientation (antibody)
heavy: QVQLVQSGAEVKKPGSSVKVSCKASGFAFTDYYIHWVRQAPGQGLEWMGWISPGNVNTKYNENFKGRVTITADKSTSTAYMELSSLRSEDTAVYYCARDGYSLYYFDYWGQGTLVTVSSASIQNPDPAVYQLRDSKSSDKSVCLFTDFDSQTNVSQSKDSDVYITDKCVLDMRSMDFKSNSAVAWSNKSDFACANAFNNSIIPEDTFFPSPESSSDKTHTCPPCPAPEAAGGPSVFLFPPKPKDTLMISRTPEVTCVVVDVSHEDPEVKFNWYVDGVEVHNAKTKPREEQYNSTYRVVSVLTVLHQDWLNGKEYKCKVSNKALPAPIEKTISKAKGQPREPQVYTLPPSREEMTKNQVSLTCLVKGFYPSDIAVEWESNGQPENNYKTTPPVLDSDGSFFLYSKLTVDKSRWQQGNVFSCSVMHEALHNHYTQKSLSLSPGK
light: DIVMTQSPDSLAVSLGERATINCKSSQSLLNSRTRKNYLAWYQQKPGQPPKLLIYWASTRQSGVPDRFSGSGSGTDFTLTISSLQAEDVAVYYCTQSHTLRTFGGGTKVEIKLEDLKNVFPPEVAVFEPSEAEISHTQKATLVCLATGFYPDHVELSWWVNGKEVHSGVCTDPQPLKEQPALNDSRYALSSRLRVSATFWQNPRNHFRCQVQFYPSNQIVSAEAWGRA
notes: as for B1
MFI at 5.0 nM [1]: 6320 MFI | MFI at 0.4 nM [2]: 1930 MFI | MFI at 0.032 nM [3]: 259 MFI

B4: T3-Design_8 (IgG1), crossed orientation (antibody)
heavy: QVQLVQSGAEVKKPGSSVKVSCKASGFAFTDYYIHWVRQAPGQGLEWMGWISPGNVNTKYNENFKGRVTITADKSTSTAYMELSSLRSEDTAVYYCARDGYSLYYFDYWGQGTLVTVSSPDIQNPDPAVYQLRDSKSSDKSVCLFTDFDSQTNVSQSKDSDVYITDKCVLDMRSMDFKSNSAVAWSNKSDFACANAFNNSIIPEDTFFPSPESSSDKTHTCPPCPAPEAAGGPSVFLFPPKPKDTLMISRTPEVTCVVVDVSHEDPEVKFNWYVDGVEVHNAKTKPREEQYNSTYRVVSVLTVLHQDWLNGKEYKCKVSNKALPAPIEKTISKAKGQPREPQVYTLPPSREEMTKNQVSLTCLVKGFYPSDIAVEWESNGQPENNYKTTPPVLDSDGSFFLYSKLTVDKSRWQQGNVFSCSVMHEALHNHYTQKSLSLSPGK
light: DIVMTQSPDSLAVSLGERATINCKSSQSLLNSRTRKNYLAWYQQKPGQPPKLLIYWASTRQSGVPDRFSGSGSGTDFTLTISSLQAEDVAVYYCTQSHTLRTFGGGTKVEIKLEDLKNVFPPEVAVFEPSEAEISHTQKATLVCLATGFYPDHVELSWWVNGKEVHSGVCTDPQPLKEQPALNDSRYALSSRLRVSATFWQNPRNHFRCQVQFYPSNQIVSAEAWGRA
notes: as for B1
MFI at 5.0 nM [1]: 6410 MFI | MFI at 0.4 nM [2]: 1830 MFI | MFI at 0.032 nM [3]: 243 MFI

B5: E17-Design_2-QQQQ (IgG1), bispecific anti-CD3 x CD19 (bispecific antibody)
heavy 1: not shown
light 1: DIVMTQSPDSLAVSLGERATINCKSSQSLLNSRTRKNYLAWYQQKPGQPPKLLIYWASTRQSGVPDRFSGSGSGTDFTLTISSLQAEDVAVYYCTQSHTLRTFGGGTKVEIKPDIQNPDPAVYQLRDSKSSDKSVCLFTDFDSQTQVSQSKDSDVYITDKCVLDMRSMDFKSNSAVAWSQKSDFACANAFQNSIIPEDTFFPSPESS
heavy 2: QMQLVQSGPEVKKPGTSVKVSCKASGYAFTSYNMYWVRQARGQRLEWIGYIDPYNGDTTYNQKFKGRVTITRDMSTSTAYMELSSLRSEDTAVYYCLTTAYAMDYWGQGTLVTVSSASTKGPSVFPLAPSSKSTSGGTAALGCLVKDYFPEPVTVSWNSGALTSGVHTFPAVLQSSGLYSLSSVVTVPSSSLGTQTYICNVNHKPSNTKVDKRVEPKSCDKTHTCPPCPAPEAAGGPSVFLFPPKPKDTLMISRTPEVTCVVVDVSHEDPEVKFNWYVDGVEVHNAKTKPREEQYNSTYRVVSVLTVLHQDWLNGKEYKCKVSNKALPAPIEKTISKAKGQPREPQVCTLPPSREEMTKNQVSLSCAVKGFYPSDIAVEWESNGQPENNYKTTPPVLDSDGSFFLVSKLTVDKSRWQQGNVFSCSVMHEALHNHYTQKSLSLSPGK
light 2: DIQLTQSPSFLSASVGDRVTITCSASSTVNYMHWYQQKPGKAPKLLIYSTSNLASGVPSRFSGSGSGTEFTLTISSLQPEDFATYYCHQWSSYPYTFGQGTKLEIKRTVAAPSVFIFPPSDEQLKSGTASVVCLLNNFYPREAKVQWKVDNALQSGNSQESVTEQDSKDSTYSLSSTLTLSKADYEKHKVYACEVTHQGLSSPVTKSFNRGEC
EC50 of T-cell directed killing of malignant B cells (PI-positive Raji cells) [4]: 624 pM

B6: T3-Design_1 (IgG1), normal orientation (antibody)
heavy: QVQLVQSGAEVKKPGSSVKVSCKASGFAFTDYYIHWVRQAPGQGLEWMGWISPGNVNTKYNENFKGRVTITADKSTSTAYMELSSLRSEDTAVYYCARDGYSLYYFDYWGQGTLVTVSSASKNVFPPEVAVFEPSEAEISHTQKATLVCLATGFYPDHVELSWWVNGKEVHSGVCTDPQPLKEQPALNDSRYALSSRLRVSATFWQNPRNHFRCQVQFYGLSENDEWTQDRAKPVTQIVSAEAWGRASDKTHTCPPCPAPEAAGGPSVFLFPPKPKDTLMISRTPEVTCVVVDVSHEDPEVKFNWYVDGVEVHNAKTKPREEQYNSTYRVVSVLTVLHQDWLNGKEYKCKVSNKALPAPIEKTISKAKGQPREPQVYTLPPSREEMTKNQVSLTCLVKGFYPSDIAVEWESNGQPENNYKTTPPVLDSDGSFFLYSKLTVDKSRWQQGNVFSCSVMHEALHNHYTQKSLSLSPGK
light: DIVMTQSPDSLAVSLGERATINCKSSQSLLNSRTRKNYLAWYQQKPGQPPKLLIYWASTRQSGVPDRFSGSGSGTDFTLTISSLQAEDVAVYYCTQSHTLRTFGGGTKVEIKRTVAAPDPAVYQLRDSKSSDKSVCLFTDFDSQTNVSQSKDSDVYITDKCVLDMRSMDFKSNSAVAWSNKSDFACANAFNNSIIPEDTFFPSPESS
notes: Monospecific IgG-like chimera of T3 variable domains with TCR CBeta/CAlpha; tested as Expi293 supernatant
MFI at 5.0 nM [1]: 5440 MFI | MFI at 0.4 nM [2]: 2190 MFI | MFI at 0.032 nM [3]: 292 MFI

B7: T3-Design_2-QQQQ (IgG1) (antibody)
heavy: not shown
light: DIVMTQSPDSLAVSLGERATINCKSSQSLLNSRTRKNYLAWYQQKPGQPPKLLIYWASTRQSGVPDRFSGSGSGTDFTLTISSLQAEDVAVYYCTQSHTLRTFGGGTKVEIKPDIQNPDPAVYQLRDSKSSDKSVCLFTDFDSQTQVSQSKDSDVYITDKCVLDMRSMDFKSNSAVAWSQKSDFACANAFQNSIIPEDTFFPSPESS
notes: De-glycosylation mutant of Design_2; tested as supernatant
EC50 (read off the curve) [5]: ~600 pM

B8: T3-Design_6a (IgG1), normal orientation (antibody)
heavy: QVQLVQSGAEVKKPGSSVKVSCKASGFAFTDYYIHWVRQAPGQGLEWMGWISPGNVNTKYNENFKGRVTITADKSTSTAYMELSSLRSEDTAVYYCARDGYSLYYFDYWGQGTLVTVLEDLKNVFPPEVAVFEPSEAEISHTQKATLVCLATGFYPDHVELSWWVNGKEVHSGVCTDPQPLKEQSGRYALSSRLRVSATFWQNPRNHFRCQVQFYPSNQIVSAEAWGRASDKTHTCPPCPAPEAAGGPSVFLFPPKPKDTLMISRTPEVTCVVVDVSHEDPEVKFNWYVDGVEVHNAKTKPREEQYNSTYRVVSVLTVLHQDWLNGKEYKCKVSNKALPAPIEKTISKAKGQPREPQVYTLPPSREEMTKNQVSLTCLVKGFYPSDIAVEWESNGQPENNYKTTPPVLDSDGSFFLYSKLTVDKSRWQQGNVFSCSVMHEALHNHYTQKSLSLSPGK
light: DIVMTQSPDSLAVSLGERATINCKSSQSLLNSRTRKNYLAWYQQKPGQPPKLLIYWASTRQSGVPDRFSGSGSGTDFTLTISSLQAEDVAVYYCTQSHTLRTFGGGTKVEIKPDIQNPDPAVYQLRDSKSSDKSVCLFTDFDSQTNVSQSKDSDVYITDKCVLDMRSMDFKSNSAVAWSNKSDFACANAFNNSIIPEDTFFPSPESS
notes: as for B1
MFI at 5.0 nM [1]: 5790 MFI | MFI at 0.4 nM [2]: 2820 MFI | MFI at 0.032 nM [3]: 405 MFI

B9: T3-Design_5 (IgG1), normal orientation (antibody)
heavy: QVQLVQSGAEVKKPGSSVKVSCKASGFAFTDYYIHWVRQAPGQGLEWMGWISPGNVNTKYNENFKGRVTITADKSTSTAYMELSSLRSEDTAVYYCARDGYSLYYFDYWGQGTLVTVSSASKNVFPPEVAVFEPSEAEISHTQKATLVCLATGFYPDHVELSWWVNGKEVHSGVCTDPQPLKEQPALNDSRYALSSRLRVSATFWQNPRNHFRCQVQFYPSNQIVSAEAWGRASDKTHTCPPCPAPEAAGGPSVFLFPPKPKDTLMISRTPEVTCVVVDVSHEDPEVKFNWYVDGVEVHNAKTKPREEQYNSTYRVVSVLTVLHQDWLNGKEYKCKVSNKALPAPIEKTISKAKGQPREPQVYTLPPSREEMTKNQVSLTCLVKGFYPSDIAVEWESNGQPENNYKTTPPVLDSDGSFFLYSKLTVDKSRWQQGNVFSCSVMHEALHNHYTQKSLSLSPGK
light: DIVMTQSPDSLAVSLGERATINCKSSQSLLNSRTRKNYLAWYQQKPGQPPKLLIYWASTRQSGVPDRFSGSGSGTDFTLTISSLQAEDVAVYYCTQSHTLRTFGGGTKVEIKRTVAAPDPAVYQLRDSKSSDKSVCLFTDFDSQTNVSQSKDSDVYITDKCVLDMRSMDFKSNSAVAWSNKSDFACANAFNNSIIPEDTFFPSPESS
notes: as for B1
MFI at 5.0 nM [1]: 5390 MFI | MFI at 0.4 nM [2]: 1860 MFI | MFI at 0.032 nM [3]: 249 MFI

B10: T3-Design_2 (IgG1), normal orientation (antibody)
heavy: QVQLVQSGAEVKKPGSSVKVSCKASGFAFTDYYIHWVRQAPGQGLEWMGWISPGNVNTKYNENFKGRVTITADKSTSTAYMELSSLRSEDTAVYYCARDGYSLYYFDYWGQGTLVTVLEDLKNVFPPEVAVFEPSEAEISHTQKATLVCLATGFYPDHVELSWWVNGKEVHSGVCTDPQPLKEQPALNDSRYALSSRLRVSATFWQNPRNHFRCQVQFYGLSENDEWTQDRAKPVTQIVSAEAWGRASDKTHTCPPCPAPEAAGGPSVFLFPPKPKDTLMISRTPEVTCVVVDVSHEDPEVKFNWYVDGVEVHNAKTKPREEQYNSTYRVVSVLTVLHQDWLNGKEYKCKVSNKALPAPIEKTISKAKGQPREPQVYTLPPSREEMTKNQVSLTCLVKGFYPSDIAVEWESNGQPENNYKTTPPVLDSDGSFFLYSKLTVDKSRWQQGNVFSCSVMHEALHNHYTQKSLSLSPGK
light: DIVMTQSPDSLAVSLGERATINCKSSQSLLNSRTRKNYLAWYQQKPGQPPKLLIYWASTRQSGVPDRFSGSGSGTDFTLTISSLQAEDVAVYYCTQSHTLRTFGGGTKVEIKPDIQNPDPAVYQLRDSKSSDKSVCLFTDFDSQTNVSQSKDSDVYITDKCVLDMRSMDFKSNSAVAWSNKSDFACANAFNNSIIPEDTFFPSPESS
notes: as for B1
MFI at 5.0 nM [1]: 5830 MFI | MFI at 0.4 nM [2]: 2620 MFI | MFI at 0.032 nM [3]: 380 MFI

B11: T3-Design_6 (IgG1), normal orientation (antibody)
heavy: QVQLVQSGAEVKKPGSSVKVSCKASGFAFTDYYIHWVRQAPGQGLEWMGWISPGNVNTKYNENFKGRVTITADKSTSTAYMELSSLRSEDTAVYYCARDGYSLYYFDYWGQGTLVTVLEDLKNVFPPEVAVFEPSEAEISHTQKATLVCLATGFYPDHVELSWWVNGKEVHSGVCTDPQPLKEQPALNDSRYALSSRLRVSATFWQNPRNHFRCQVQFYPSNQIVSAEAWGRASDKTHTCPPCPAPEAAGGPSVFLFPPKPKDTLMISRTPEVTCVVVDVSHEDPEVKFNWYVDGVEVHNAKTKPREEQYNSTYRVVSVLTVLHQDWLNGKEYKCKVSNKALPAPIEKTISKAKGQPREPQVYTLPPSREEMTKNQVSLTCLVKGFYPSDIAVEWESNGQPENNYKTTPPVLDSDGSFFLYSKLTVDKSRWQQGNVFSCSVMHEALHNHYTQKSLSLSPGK
light: DIVMTQSPDSLAVSLGERATINCKSSQSLLNSRTRKNYLAWYQQKPGQPPKLLIYWASTRQSGVPDRFSGSGSGTDFTLTISSLQAEDVAVYYCTQSHTLRTFGGGTKVEIKPDIQNPDPAVYQLRDSKSSDKSVCLFTDFDSQTNVSQSKDSDVYITDKCVLDMRSMDFKSNSAVAWSNKSDFACANAFNNSIIPEDTFFPSPESS
notes: as for B1
MFI at 5.0 nM [1]: 5790 MFI | MFI at 0.4 nM [2]: 3910 MFI | MFI at 0.032 nM [3]: 613 MFI

B12: T3-Design_2-AAAA (IgG1) (antibody)
heavy: not shown
light: DIVMTQSPDSLAVSLGERATINCKSSQSLLNSRTRKNYLAWYQQKPGQPPKLLIYWASTRQSGVPDRFSGSGSGTDFTLTISSLQAEDVAVYYCTQSHTLRTFGGGTKVEIKPDIQNPDPAVYQLRDSKSSDKSVCLFTDFDSQTAVSQSKDSDVYITDKCVLDMRSMDFKSNSAVAWSAKSDFACANAFANSIIPEDTFFPSPESS
notes: as for B7
EC50 (read off the curve) [5]: ~500 pM

B13: T3-Design_2-ASKE (IgG1) (antibody)
heavy: not shown
light: DIVMTQSPDSLAVSLGERATINCKSSQSLLNSRTRKNYLAWYQQKPGQPPKLLIYWASTRQSGVPDRFSGSGSGTDFTLTISSLQAEDVAVYYCTQSHTLRTFGGGTKVEIKPDIQNPDPAVYQLRDSKSSDKSVCLFTDFDSQTAVSQSKDSDVYITDKCVLDMRSMDFKSNSAVAWSSKSDFACANAFKNSIIPEDTFFPSPESS
notes: as for B7
EC50 (read off the curve) [5]: ~500 pM

B14: T3-Design_2-QQQQQ (IgG1) (antibody)
heavy: not shown
light: DIVMTQSPDSLAVSLGERATINCKSSQSLLNSRTRKNYLAWYQQKPGQPPKLLIYWASTRQSGVPDRFSGSGSGTDFTLTISSLQAEDVAVYYCTQSHTLRTFGGGTKVEIKPDIQNPDPAVYQLRDSKSSDKSVCLFTDFDSQTQVSQSKDSDVYITDKCVLDMRSMDFKSQSAVAWSQKSDFACANAFQNSIIPEDTFFPSPESS
notes: as for B7
EC50 (read off the curve) [5]: ~400 pM

B15: WBP316-BMK1.IgG4 (antibody, V domains shown)
VH: QVQLVESGGGVVQPGRSLRLSCAASGFTFSSYTMHWVRQAPGKGLEWVTFISYDGNNKYYADSVKGRFTISRDNSKNTLYLQMNSLRAEDTAIYYCARTGWLGPFDYWGQGTLVTVSS
VL: not shown
notes: also called WBP316-BMK1 (Ipilimumab)
EC50 [6]: 674 pM | Top(MFI) [6]: 8050 MFI

— patent US20240124586A1 (WUXI BIOLOGICS IRELAND, published 2024)
